Experimental data: PMC9610768 (2022)

Biological target: actin filament (skeletal muscle alpha-actin) (Oryctolagus cuniculus, UniProt P68135)
Test: co-sedimentation

Row | Binder | Kd [nM]
1 | GFP-Rng2CHD CHD (protein, GFP fused to Rng2CHD N-terminus, phalloidin-stabilized actin filaments) MDVNVGLSRLQSQAGAPVGTKGSNTRLAAKQRETLQAYDYLCRVDEAKKWIEECLGTDLGPTSTFEQSLRNGVVLALLVQKFQPDKLIKIFYSNELQFRHSDNINKFLDFIHGIGLPEIFHFELTDIYEGKNLPKVIYCIHALSYFLSMQDLAPPLIKSDENLSFTDEDVSIIVRRLRQSNVILPNFKA | 3400
2 | Rng2CHD CHD (protein, phalloidin-stabilized actin filaments) MDVNVGLSRLQSQAGAPVGTKGSNTRLAAKQRETLQAYDYLCRVDEAKKWIEECLGTDLGPTSTFEQSLRNGVVLALLVQKFQPDKLIKIFYSNELQFRHSDNINKFLDFIHGIGLPEIFHFELTDIYEGKNLPKVIYCIHALSYFLSMQDLAPPLIKSDENLSFTDEDVSIIVRRLRQSNVILPNFKA | 920
